Measured values published in CN113461818A (UNIV XUZHOU MEDICAL, dated 2021).

Molecular target: T1, CD276抗原 (UniProt Q5ZPR3 29-466, limits assumed)
T1 construct: also called CD276靶抗原; CD276目的蛋白
T1 sequence (looked up): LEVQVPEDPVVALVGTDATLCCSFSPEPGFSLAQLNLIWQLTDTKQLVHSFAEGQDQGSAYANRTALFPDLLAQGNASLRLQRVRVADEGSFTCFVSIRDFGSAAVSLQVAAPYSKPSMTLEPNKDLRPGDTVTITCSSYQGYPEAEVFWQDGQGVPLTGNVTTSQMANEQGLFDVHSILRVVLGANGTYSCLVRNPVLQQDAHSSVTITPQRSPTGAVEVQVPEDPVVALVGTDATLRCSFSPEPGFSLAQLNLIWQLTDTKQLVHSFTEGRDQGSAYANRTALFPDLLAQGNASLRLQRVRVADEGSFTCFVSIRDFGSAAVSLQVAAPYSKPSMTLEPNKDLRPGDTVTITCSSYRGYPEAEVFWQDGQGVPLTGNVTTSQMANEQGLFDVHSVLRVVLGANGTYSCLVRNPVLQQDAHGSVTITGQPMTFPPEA
Experiment: phage ELISA on coated antigen, TMB, OD450nm

B1: CD276-03 monoclonal phage (clone 03 scFv displayed on phage) (scFv)
scFv: QVQLVQSGGGVVQPGRSLRLSCSASGFTFNSHGMHWVRQAPGKGLEWVGVIWYDGSNAYYADSAKGRFTISRDNSKNSVYLQLNSLGVEDTALYYCAKSDRPHPMGFYYYMDVWGQGTTVTVSSGGGGSGGGGSQSALTQPASVSGSPGQSITISCTGTSSDVGGYNYVSWYQQHPGKAPKLMIYDVSNRPSGVSNRFSGSKSGNTASLTISGLQAEDEADYYCSSYTSSSTLVFGGGTK
notes: The phage coat protein fusion partner is not described; also called 克隆03
B1: no binding.
